Experimental data: patent US12391768B2, “Antibodies to ticagrelor and methods of use” (MEDIMMUNE LIMITED, priority 2014, dated 2025)

Tests used:
TICA0010 Fab = assay: HTRF competition binding selectivity assay, TICA0010 His-Fab; parameters: species or system human; conditions: first series (Table 2), not DMSO normalised; read-out: IC50 (uM) for inhibition of biotinylated ticagrelor binding to TICA00l0 his-Fab
Procedure: Total Binding control wells were set up which contained all of the assay components above except that 5 ul assay buffer was added in place of the test selectivity compound addition. Negative Binding control wells were set up which contained all of the assay components included in the Total Binding control wells except that 5ul assay buffer was added in place of the His-Fab addition. Test compound serial titrations were either ½ or ⅓ depending on the particular experiment and top final assay compound concentrations were optimized on a compound specific basis. The concentration of biotinylated ticagrelor and His-Fab was optimized on a Fab specific basis in separate experiments. For the four Fabs investigated at the end of the lead isolation phase (TICA0010, TICA0049, TICA0053 and TICA0072) the final assay reagent concentrations used are set out in Table 1 below:
For the two Fabs investigated at the end of the lead optimization phase (TICA0162 and TICA0212) the final assay reagent concentrations used were 5nM biotinylated ticagrelor and 1 nM His Fab in both cases. […] In order to enable subsequent normalization of data to correct for any such vehicle related effects parallel titrations of DMSO alone were included in most experiments in which the final assay DMSO concentrations mirrored those of the test compound serial dilutions. At the end of the set up procedure that assay was incubated for 3hrs at RT before being read on an Envision plate reader using a standard read protocol.
The negative ratio value used in the calculation of % Delta F was derived from the Negative Binding control wells. % Delta F values were then used to calculate % Specific Binding values according to the equation below: Specific Binding (%)={(Sample Delta F−Negative Binding Delta F)/(Total Binding Delta F−Negative Binding Delta F)}×100
For standard calculations of % Specific Binding Total Binding Delta F was taken from Total Binding control wells which contained all of the aforementioned components of the assay but without inclusion of any competing test compound.
In those experiments where DMSO normalization was applied DMSO normalised % Specific Binding was calculated essentially according to the equation above except that in this case Total Binding Delta F was taken from wells containing all of the components in the Total Binding control wells as well as DMSO at a concentration equivalent to that in the relevant sample well.

[1] = molecular target: TICA0159 IgG binding to biotinylated ticagrelor; assay: Second generation HTRF epitope competition assay
Procedure: Purified parent TICA0072 (scFv or Fab) was used as a benchmark in all experiments such that improvements in IC50 measured with optimized variants (scFv or Fab) could be expressed as fold improvements over parent TICA0072. Total Binding Control Wells contained all assay components except that 5 ul assay buffer was added in place of the purified scFv or Fab sample. Negative Binding control wells contained all of the components of the Total Binding control wells except that 5 ul of assay buffer was added in place of the TICA0072 IgG.
In both single point HTS and multipoint IC50 profiling versions of the assay. plates were incubated for 3 hrs at RT before being read on an Envision plate reader using a standard HTRF read protocol in which samples are excited at 337 nm and time resolved fluorescence emission is measured at both 620 nm and 665 nM.
Raw 665 nm and 620 nm counts were used to calculate Delta F (%) and % Specific Binding according to the equations described earlier in Assays 1 and 4, respectively. For multipoint secondary profiling experiments IC50 values were determined using Graphpad Prism software using sigmoidal dose response (variable slope) curve fitting (4 parameter logistic equation).
This assay was used only in multipoint IC50 profiling format (as opposed to HTS format) and was performed essentially identically to the method given in Assay 5 (above) for multipoint IC50 profiling of purified Fab variants in the parent TICA0072 IgG based epitope competition assay. The only difference being that TICA0159 IgG was used in place of TICA0072 IgG at the appropriate point in the assay set up but at the same 16nM final assay concentration. In all other respects this assay was performed exactly as described above in the multipoint secondary profiling version for purified Fab.

[2] = tested on: TAM mediated inhibition of ADP-induced platelet aggregation; assay: Light transmission aggregometry in human PRP, reversal of TAM; type: cell-based; conditions: for mean extent of TAM reversal: Example 10, 1 μM Fab, n=3
Procedure: (§1) The extent and potency of TICA0212/MEDI2452 to reverse ticagrelor or TAM mediated inhibition of ADP-induced platelet aggregation was determined in human platelet rich plasma (PRP) using light transmission aggregometry.
(§2) For the in vitro human PRP assay, blood was collected from fasted healthy volunteers by vein puncture of vena cephalica. […] The anticoagulated human blood was centrifuged at 240× g for 15 min. PRP was carefully removed and transferred to a clean vial. Platelet poor plasma (PPP) was prepared by centrifugation of the PRP at 2000× g for 15 min. Light transmission aggregometry (LTA) was evaluated in PRP by the Platelet Aggregation Profiler (PAP-8E, Bio/Data Corporation, PA, USA.). Zero % aggregation was defined as the light transmission of PRP and 100% aggregation was defined as the light transmission of PPP.
(§3) PRP was preincubated with 1 μM ticagrelor or TAM for 1 hour before co-incubating with different concentrations of TICA0212 or an isotype control Fab for 30 minutes. Platelet aggregation was initiated by addition of 20 uM ADP and was continuously recorded for 6 min. Data for final aggregation (FA) extent at 6 min was analysed.
(§4) The time of onset of TICA0212/MEDI2452 to reverse ticagrelor or TAM was determined in human platelet rich plasma (PRP) using light transmission aggregometry as in example 8. PRP was preincubated with 1 μM ticagrelor or TAM for 1 hour before adding 1 μM TICA0212/MEDI2452 and co-incubating for 5, 10, 15, 30 and 60 min, or adding an isotype control Fab for 30 min. Platelet aggregation was initiated by addition of 20 μM ADP and was continuously recorded for 6 min. Data for final aggregation (FA) extent at 6 min was analyzed.

[3] = tested on: ticagrelor mediated inhibition of ADP-induced platelet aggregation; assay: Light transmission aggregometry in human PRP, reversal of ticagrelor; type: cell-based; conditions: for mean extent of reversal of ticagrelor mediated inhibition: Example 10, 1 μM Fab, n=3
Procedure: as §1, §2, §3, §4

Row | Molecule | IC50 (TICA0010 Fab) | IC50 ([1]; Fab, 16 nM TICA0159 IgG, 1 nM biotinylated ticagrelor) | Fold Improved ([1]; IC50 relative to parent TICA0072 Fab) | improvement in IC50 relative to the parent TICA0072 Fab ([1]; second generation epitope competition assay) | IC50 ([2]; 1 μM TAM, 20 μM ADP, human PRP, 30 min co-incubation, mean n=5, read-out: IC50, half-maximum reversal of TAM mediated inhibition of ADP-induced platelet aggregation) | mean extent of reversal of TAM ([2]; Example 9, 1:1 conditions (1 μM Fab: 1 μM TAM), 30 min incubation) | mean extent of TAM reversal ([2]; 1 μM TAM, co-incubation 5 min) | mean extent of TAM reversal ([2]; 1 μM TAM, co-incubation 10 min) | mean extent of TAM reversal ([2]; 1 μM TAM, co-incubation 15 min) | mean extent of TAM reversal ([2]; 1 μM TAM, co-incubation 30 min) | mean extent of TAM reversal ([2]; 1 μM TAM, co-incubation 60 min) | IC50 ([3]; 1 μM ticagrelor, 20 μM ADP, human PRP, 30 min co-incubation, mean n=5, read-out: IC50, half-maximum reversal of ticagrelor mediated inhibition of ADP-induced platelet aggregation) | mean extent of reversal of ticagrelor ([3]; Example 9, 1:1 conditions (1 μM Fab: 1 μM ticagrelor), 30 min incubation) | mean extent of reversal of ticagrelor mediated inhibition ([3]; 1 μM ticagrelor, co-incubation 5 min) | mean extent of reversal of ticagrelor mediated inhibition ([3]; 1 μM ticagrelor, co-incubation 10 min) | mean extent of reversal of ticagrelor mediated inhibition ([3]; 1 μM ticagrelor, co-incubation 15 min) | mean extent of reversal of ticagrelor mediated inhibition ([3]; 1 μM ticagrelor, co-incubation 30 min) | mean extent of reversal of ticagrelor mediated inhibition ([3]; 1 μM ticagrelor, co-incubation 60 min)
1 | CCCSc1nc(N[C@@H]2C[C@H]2c2ccc(F)c(F)c2)c2nnn([C@@H]3C[C@H](OCCO)[C@@H](O)[C@H]3O)c2n1 [Ticagrelor, (1S,2S,3R,5S)-3-[7-{[(1R,2S)-2-(3,4-difluorophenyl)cyclopropyl]amino}-5-(propylthio)-3H-[1,2,3]triazolo[4,5-d]pyrimidin-3-yl]-5-(2-hydroxyethoxy)cyclopentane-1,2-diol] | 0.122 µM |  |  |  |  |  |  |  |  |  |  |  |  |  |  |  |  | 
2 | TICA0212: combination of TICA0162 and TICA0152; VH SEQ ID NO:72, VL SEQ ID NO:77 (antibody, listed as Homo sapiens, V domains shown) VH: QVQLQESGAEVKKPGSSVRVSCKASGGTFDSYSIHWVRQAPGQGLEWMGGIIPAFGTLSSAQDFQARVTISADKSTSTAYMELSGLRSEDTAVYYCARGSFDYYFWSASHPPNDALAIWGQGTLVTVSS VL: QSVVTQPPSVSAAPGQKVTISCSGSNSDIGNNYVSWYQQLPGTAPKLLIYDNNKRPSGIPDRFSGSKSGTSATLAITGLQAGDEADYYCGTWLYDRAVGLFGGGTKVTVL |  | 12 nM | 142.8 | approximately 2 log | 780 nM | 62% | 53% | 56% | 58% | 69% | 74% | 640 nM | 78% | 85% | 69% | 74% | 80% | 81%
